Series [1] has as its system T1, N#CCc1ccccc1.
T1 construct: His tag (C); made in house; host or cells: E. coli Rosetta(DE3)pLysS (plasmid pLH10.3, pET22b)
Description: Measurement of kinetic parameters (Bertholet ammonia assay, purified enzyme). It counts as biochemical, Bradyrhizobium japonicum USDA110. To be noted: other: purified nitrilase, potassium phosphate buffer pH 7.2, 30° C. The procedure: (§1) The standard assays were carried out by mixing the substrate nitrile and purified nitrilase enzyme in potassium phosphate buffer (100 mM, pH 7.2). The reaction mixture was incubated at 30° C. Samples (100 μL) of the reaction mixture were withdrawn at several time intervals and quenched with 10 μl of 1 M HCl. The amount of ammonia produced in the reaction was measured using Bertholet assay as follows: A 100 μL aliquot of each of the following assay reagents was added subsequently: 0.02 M NaOCl, 0.33 M sodium phenoxide and 0.01% sodium nitroprusside solution. The mixture was then heated at 95° C. for 2 min, cooled rapidly in ice-water bath, and 200 μl of the mixture was then placed in a 96-well plate to measure the absorbance at 640 nm using SpectraMax M2 microplate reader (Molecular Devices). The amount of ammonia released during the hydrolysis was calculated by comparison with the standard curve obtained with standard ammonium chloride solution, and the activity was defined as the number of μmol of ammonia produced in 1 minute by 1 mg of enzyme (μmol·min^−1·mg^−1). […], activity assays were performed with different substrate concentrations, and Vmax and Km were calculated by best fitting the curve to experimental data according to Michaelis equation.

In series [2] the test system is T2, N#CC(O)c1ccccc1.
T2 construct: His tag (C); made in house; host or cells: E. coli Rosetta(DE3)pLysS (plasmid pLH10.3, pET22b)
The series is described as above. Type of series: biochemical, Bradyrhizobium japonicum USDA110. The conditions noted are these: other: purified nitrilase, potassium phosphate buffer pH 7.2, 30° C. The procedure:
as §1

Turning to “nitrilase bll6402 (Bradyrhizobium diazoefficiens USDA 110)”, in series [1], the Km came out at 100 µM, the Vmax worked out at 2.2 U/mg, the kcat stood at 1.36 s⁻¹ and the kcat/Km stood at 13600 s^−1M^−1. In addition, in series [2], the Km was determined as 260 µM, the Vmax was determined as 44.7 U/mg, the kcat turned out to be 27.0 s⁻¹ and the kcat/Km amounted to 104000 M⁻¹ s⁻¹.

As usually defined, the Km is the concentration of substrate that gives half-maximal velocity. One may read the kcat as the number of substrate molecules converted per active site and unit of time at saturation.

Source of the values: patent publication US20070178575A1, “Identification Of A Nitrilase From B. Japonicum By Rational Genome Mining And Methods Of Use” (priority 2005, published 2007).
